In the supplement of paper PMC9112550, “Optimization of the antimicrobial peptide Bac7 by deep mutational scanning” (BMC Biology, 2022):

tested on: Escherichia coli TOP10; assay: shrunken log2 fold change of peptide-encoding DNA abundance (4.5 h post-induction vs induction); higher = less antimicrobial activity (less host growth inhibition); conditions: time post-induction: 4.5 h; library: site-saturation at positions 5, 18, 19, 20
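Note: peptides expressed intracellularly from a pBAD plasmid library in pooled LB shake-flask culture, induced with 0.3% L-arabinose, DNA abundance read by NGS, three biological replicates, DESeq2 with apeglm shrinkage.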

Going from RRIRGRPPRLPRPRPRPFEDPRP to RRIRMRPPRLPRPRPRPIQQPRP, the “shrunken log2 fold change” value falls from 0.392 to -0.0206.

RRIRARPPRLPRPRPRPKHCPRP and RRIRFRPPRLPRPRPRPSGPPRP are within 0.2 log units of each other in “shrunken log2 fold change” value: 0.0395 for the first, 0.21 for the second.

Compared with RRIRTRPPRLPRPRPRPILCPRP, RRIRPRPPRLPRPRPRPIFLPRP is higher in “shrunken log2 fold change” value: -0.0876 for the first, 0.124 for the second.

First: RRIRRRPPRLPRPRPRPPSRPRP
Second: RRIRKRPPRLPRPRPRPHTYPRP
The “shrunken log2 fold change” value of the first is higher: 0.446 for the first, -0.101 for the second.

Going from RRIRLRPPRLPRPRPRPNRDPRP to RRIRSRPPRLPRPRPRPRWYPRP, the “shrunken log2 fold change” value falls from -0.124 to -0.402.

RRIRQRPPRLPRPRPRPHRGPRP and RRIRHRPPRLPRPRPRPPQEPRP are within 0.2 log units of each other in “shrunken log2 fold change” value: 0.0502 for the first, -0.0115 for the second.

RRIRGRPPRLPRPRPRPIWYPRP and RRIRYRPPRLPRPRPRPRLYPRP are within 0.2 log units of each other in “shrunken log2 fold change” value: -0.114 for the first, -0.247 for the second.

First: RRIRWRPPRLPRPRPRPMITPRP
Second: RRIRTRPPRLPRPRPRPPIHPRP
The “shrunken log2 fold change” value of the first is higher: 0.0975 for the first, -0.323 for the second.

Compared with RRIRHRPPRLPRPRPRPDISPRP, RRIRERPPRLPRPRPRPMARPRP is higher in “shrunken log2 fold change” value: -0.278 for the first, 0.116 for the second.

Going from RRIRRRPPRLPRPRPRPTICPRP to RRIRCRPPRLPRPRPRPIRDPRP, the “shrunken log2 fold change” value falls from 0.394 to -0.231.

Compared with RRIRRRPPRLPRPRPRPWTAPRP, RRIRSRPPRLPRPRPRPIRYPRP is higher in “shrunken log2 fold change” value: -0.106 for the first, 0.31 for the second.

Going from RRIRARPPRLPRPRPRPCWRPRP to RRIRHRPPRLPRPRPRPVLCPRP, the “shrunken log2 fold change” value falls from -0.0211 to -0.273.

RRIRQRPPRLPRPRPRPDKFPRP and RRIRQRPPRLPRPRPRPFWHPRP are within 0.2 log units of each other in “shrunken log2 fold change” value: -0.513 for the first, -0.469 for the second.

Going from RRIRNRPPRLPRPRPRPAQSPRP to RRIRPRPPRLPRPRPRPLLTPRP, the “shrunken log2 fold change” value rises from 0.0508 to 0.252.

First: RRIRIRPPRLPRPRPRPSDYPRP
Second: RRIRIRPPRLPRPRPRPPNIPRP
The “shrunken log2 fold change” value of the first is lower: -0.385 for the first, -0.0703 for the second.

RRIRYRPPRLPRPRPRPPREPRP and RRIRARPPRLPRPRPRPCDRPRP are within 0.2 log units of each other in “shrunken log2 fold change” value: -0.0166 for the first, -0.00133 for the second.

Compared with RRIRQRPPRLPRPRPRPLWKPRP, RRIRHRPPRLPRPRPRPTPSPRP is higher in “shrunken log2 fold change” value: -0.0262 for the first, 0.276 for the second.

First: RRIRIRPPRLPRPRPRPWCSPRP
Second: RRIRFRPPRLPRPRPRPGGFPRP
The “shrunken log2 fold change” value of the first is lower: -0.412 for the first, 0.42 for the second.

First: RRIRNRPPRLPRPRPRPHIKPRP
Second: RRIRYRPPRLPRPRPRPRLFPRP
The “shrunken log2 fold change” value of the first is lower: -0.595 for the first, -0.194 for the second.

Compared with RRIRHRPPRLPRPRPRPSDTPRP, RRIRRRPPRLPRPRPRPHVQPRP is higher in “shrunken log2 fold change” value: -1.05 for the first, -0.143 for the second.

First: RRIRHRPPRLPRPRPRPKYRPRP
Second: RRIRNRPPRLPRPRPRPKRAPRP
The “shrunken log2 fold change” value of the first is lower: -0.138 for the first, 0.146 for the second.

Going from RRIRERPPRLPRPRPRPWNEPRP to RRIRQRPPRLPRPRPRPTHVPRP, the “shrunken log2 fold change” value rises from -0.351 to -0.0938.

First: RRIRERPPRLPRPRPRPFVQPRP
Second: RRIRPRPPRLPRPRPRPPPWPRP
The “shrunken log2 fold change” value of the first is lower: -0.386 for the first, 0.588 for the second.

RRIRIRPPRLPRPRPRPRGMPRP and RRIRDRPPRLPRPRPRPVMIPRP are within 0.2 log units of each other in “shrunken log2 fold change” value: 0.0423 for the first, 0.0644 for the second.

Compared with RRIRERPPRLPRPRPRPNWWPRP, RRIRFRPPRLPRPRPRPMDGPRP is lower in “shrunken log2 fold change” value: 0.196 for the first, -0.0177 for the second.

RRIRWRPPRLPRPRPRPIYQPRP and RRIRGRPPRLPRPRPRPWKYPRP are within 0.2 log units of each other in “shrunken log2 fold change” value: -0.288 for the first, -0.115 for the second.

Going from RRIRHRPPRLPRPRPRPTDVPRP to RRIRCRPPRLPRPRPRPMQNPRP, the “shrunken log2 fold change” value rises from -0.217 to 0.311.

Going from RRIRCRPPRLPRPRPRPQPPPRP to RRIRYRPPRLPRPRPRPTEWPRP, the “shrunken log2 fold change” value falls from 0.806 to -0.0714.

First: RRIRARPPRLPRPRPRPCNNPRP
Second: RRIRVRPPRLPRPRPRPQQEPRP
The “shrunken log2 fold change” value of the first is lower: -0.352 for the first, 0.0458 for the second.

Compared with RRIRTRPPRLPRPRPRPYWHPRP, RRIRGRPPRLPRPRPRPRGKPRP is higher in “shrunken log2 fold change” value: -0.4 for the first, 0.341 for the second.

First: RRIRSRPPRLPRPRPRPKAVPRP
Second: RRIRMRPPRLPRPRPRPNYMPRP
The “shrunken log2 fold change” value of the first is lower: 0.255 for the first, 1.06 for the second.

Going from RRIRTRPPRLPRPRPRPWMDPRP to RRIRPRPPRLPRPRPRPEHRPRP, the “shrunken log2 fold change” value rises from -0.13 to 0.0967.

First: RRIRRRPPRLPRPRPRPSHQPRP
Second: RRIRSRPPRLPRPRPRPPINPRP
The “shrunken log2 fold change” value of the first is higher: 0.0351 for the first, -0.32 for the second.

Compared with RRIRSRPPRLPRPRPRPCLPPRP, RRIRCRPPRLPRPRPRPALFPRP is higher in “shrunken log2 fold change” value: -0.133 for the first, 0.344 for the second.

First: RRIRERPPRLPRPRPRPKYNPRP
Second: RRIRFRPPRLPRPRPRPTYYPRP
The “shrunken log2 fold change” value of the first is lower: -0.7 for the first, -0.421 for the second.

RRIRCRPPRLPRPRPRPVQLPRP and RRIRARPPRLPRPRPRPIKFPRP are within 0.2 log units of each other in “shrunken log2 fold change” value: 0.0365 for the first, -0.126 for the second.

First: RRIRHRPPRLPRPRPRPRVMPRP
Second: RRIRKRPPRLPRPRPRPETNPRP
The “shrunken log2 fold change” value of the first is lower: 0.0966 for the first, 2.35 for the second.

For RRIRMRPPRLPRPRPRPAGIPRP, the “shrunken log2 fold change” value was -0.000742.
